The values below come from patent publication US12679878B2, “CRF2 receptor agonists and their use in therapy” (SANOFI, priority 2020, dated 2026).

Starred links: 1 amine or outer side, 2 acyl side, 3 side chain; linkers in the order of their positions; H or OH if unused. Non-standard residues stand in square brackets, D forms with d. Groups on a side chain read outwards from the residue. No end group written: not given here. *: point of attachment. C18 diacid = O=C(O)CCCCCCCCCCCCCCCCC(=O)*; γGlu = O=C(O)[C@H](CCC(=O)[*:2])N[*:1]; Palmitoyl = CCCCCCCCCCCCCCCC(=O)*; AEEA = NCCOCCOCC(=O)O; Aib = CC(C)(N)C(=O)O

The target in the experiment is human corticotropin-releasing factor 2α (CRF2 α receptor) (human), Q13324. Kind of experiment: cell-based or functional assay.
Sequence of human corticotropin-releasing factor 2α (CRF2 α receptor) (human), Q13324 (Q13324 20-411): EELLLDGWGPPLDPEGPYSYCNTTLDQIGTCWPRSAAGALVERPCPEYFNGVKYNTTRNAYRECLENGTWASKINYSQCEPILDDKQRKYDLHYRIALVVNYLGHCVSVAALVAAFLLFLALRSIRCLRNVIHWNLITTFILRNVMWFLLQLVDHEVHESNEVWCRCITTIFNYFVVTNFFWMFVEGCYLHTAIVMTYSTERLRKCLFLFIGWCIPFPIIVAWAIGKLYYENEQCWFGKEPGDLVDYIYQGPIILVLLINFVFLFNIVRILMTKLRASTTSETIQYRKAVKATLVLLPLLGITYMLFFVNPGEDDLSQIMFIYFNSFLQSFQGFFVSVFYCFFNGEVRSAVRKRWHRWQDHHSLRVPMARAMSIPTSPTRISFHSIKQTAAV

B1: SEQ ID NO: 116 (peptide)
peptide: IVLSLDVPIKLK([AEEA-AEEA-γGlu-C18 diacid])QILLKQERQK[Aib]QREKAEKNKQILAQV-NH2
modifications: N-terminus assumed
SMILES: CC[C@H](C)[C@H](N)C(=O)N[C@H](C(=O)N[C@@H](CC(C)C)C(=O)N[C@@H](CO)C(=O)N[C@@H](CC(C)C)C(=O)N[C@@H](CC(=O)O)C(=O)N[C@H](C(=O)N1CCC[C@H]1C(=O)N[C@H](C(=O)N[C@@H](CCCCN)C(=O)N[C@@H](CC(C)C)C(=O)N[C@@H](CCCCNC(=O)COCCOCCNC(=O)COCCOCCNC(=O)CC[C@H](NC(=O)CCCCCCCCCCCCCCCCC(=O)O)C(=O)O)C(=O)N[C@@H](CCC(N)=O)C(=O)N[C@H](C(=O)N[C@@H](CC(C)C)C(=O)N[C@@H](CC(C)C)C(=O)N[C@@H](CCCCN)C(=O)N[C@@H](CCC(N)=O)C(=O)N[C@@H](CCC(=O)O)C(=O)N[C@@H](CCCNC(=N)N)C(=O)N[C@@H](CCC(N)=O)C(=O)N[C@@H](CCCCN)C(=O)NC(C)(C)C(=O)N[C@@H](CCC(N)=O)C(=O)N[C@@H](CCCNC(=N)N)C(=O)N[C@@H](CCC(=O)O)C(=O)N[C@@H](CCCCN)C(=O)N[C@@H](C)C(=O)N[C@@H](CCC(=O)O)C(=O)N[C@@H](CCCCN)C(=O)N[C@@H](CC(N)=O)C(=O)N[C@@H](CCCCN)C(=O)N[C@@H](CCC(N)=O)C(=O)N[C@H](C(=O)N[C@@H](CC(C)C)C(=O)N[C@@H](C)C(=O)N[C@@H](CCC(N)=O)C(=O)N[C@H](C(N)=O)C(C)C)[C@@H](C)CC)[C@@H](C)CC)[C@@H](C)CC)C(C)C)C(C)C
For B1, the EC50 [nM], 0% HSA worked out at 0.7 nM.

B2: SEQ ID NO: 112 (peptide)
peptide: IVLSLDVPIKLK([AEEA-AEEA-γGlu-C18 diacid])QILLKQERQKKQREKAETNKQILAQV-NH2
modifications: N-terminus assumed
SMILES: CC[C@H](C)[C@H](N)C(=O)N[C@H](C(=O)N[C@@H](CC(C)C)C(=O)N[C@@H](CO)C(=O)N[C@@H](CC(C)C)C(=O)N[C@@H](CC(=O)O)C(=O)N[C@H](C(=O)N1CCC[C@H]1C(=O)N[C@H](C(=O)N[C@@H](CCCCN)C(=O)N[C@@H](CC(C)C)C(=O)N[C@@H](CCCCNC(=O)COCCOCCNC(=O)COCCOCCNC(=O)CC[C@H](NC(=O)CCCCCCCCCCCCCCCCC(=O)O)C(=O)O)C(=O)N[C@@H](CCC(N)=O)C(=O)N[C@H](C(=O)N[C@@H](CC(C)C)C(=O)N[C@@H](CC(C)C)C(=O)N[C@@H](CCCCN)C(=O)N[C@@H](CCC(N)=O)C(=O)N[C@@H](CCC(=O)O)C(=O)N[C@@H](CCCNC(=N)N)C(=O)N[C@@H](CCC(N)=O)C(=O)N[C@@H](CCCCN)C(=O)N[C@@H](CCCCN)C(=O)N[C@@H](CCC(N)=O)C(=O)N[C@@H](CCCNC(=N)N)C(=O)N[C@@H](CCC(=O)O)C(=O)N[C@@H](CCCCN)C(=O)N[C@@H](C)C(=O)N[C@@H](CCC(=O)O)C(=O)N[C@H](C(=O)N[C@@H](CC(N)=O)C(=O)N[C@@H](CCCCN)C(=O)N[C@@H](CCC(N)=O)C(=O)N[C@H](C(=O)N[C@@H](CC(C)C)C(=O)N[C@@H](C)C(=O)N[C@@H](CCC(N)=O)C(=O)N[C@H](C(N)=O)C(C)C)[C@@H](C)CC)[C@@H](C)O)[C@@H](C)CC)[C@@H](C)CC)C(C)C)C(C)C
In turn, B2 displayed an EC50 [nM], 0% HSA of 0.66 nM and an EC50 [nM], 0.1% HSA of 68.9 nM.
Take IVLSLDVPIKLK([AEEA-AEEA-γGlu-C18 diacid])QILLKQERQKKQRQQAETNKQILAQV-NH2 [SEQ ID NO: 113]: the EC50 [nM], 0% HSA was determined as 0.1 nM and the EC50 [nM], 0.1% HSA turned out to be 11.9 nM.

B3: SEQ ID NO: 8 (peptide)
peptide: FTLSLDVPTKIK([γGlu-Palmitoyl])QKLLKQEKQKKQRQKAKTAAQILAQV-NH2
modifications: N-terminus assumed
SMILES: CCCCCCCCCCCCCCCC(=O)N[C@@H](CCC(=O)NCCCC[C@H](NC(=O)[C@@H](NC(=O)[C@H](CCCCN)NC(=O)[C@@H](NC(=O)[C@@H]1CCCN1C(=O)[C@@H](NC(=O)[C@H](CC(=O)O)NC(=O)[C@H](CC(C)C)NC(=O)[C@H](CO)NC(=O)[C@H](CC(C)C)NC(=O)[C@@H](NC(=O)[C@@H](N)Cc1ccccc1)[C@@H](C)O)C(C)C)[C@@H](C)O)[C@@H](C)CC)C(=O)N[C@@H](CCC(N)=O)C(=O)N[C@@H](CCCCN)C(=O)N[C@@H](CC(C)C)C(=O)N[C@@H](CC(C)C)C(=O)N[C@@H](CCCCN)C(=O)N[C@@H](CCC(N)=O)C(=O)N[C@@H](CCC(=O)O)C(=O)N[C@@H](CCCCN)C(=O)N[C@@H](CCC(N)=O)C(=O)N[C@@H](CCCCN)C(=O)N[C@@H](CCCCN)C(=O)N[C@@H](CCC(N)=O)C(=O)N[C@@H](CCCNC(=N)N)C(=O)N[C@@H](CCC(N)=O)C(=O)N[C@@H](CCCCN)C(=O)N[C@@H](C)C(=O)N[C@@H](CCCCN)C(=O)N[C@H](C(=O)N[C@@H](C)C(=O)N[C@@H](C)C(=O)N[C@@H](CCC(N)=O)C(=O)N[C@H](C(=O)N[C@@H](CC(C)C)C(=O)N[C@@H](C)C(=O)N[C@@H](CCC(N)=O)C(=O)N[C@H](C(N)=O)C(C)C)[C@@H](C)CC)[C@@H](C)O)C(=O)O
In turn, B3 registered an EC50 [nM], 0% HSA of 0.2 nM.

B4: SEQ ID NO: 117 (peptide)
peptide: IVLSLDVPIKLK([AEEA-AEEA-γGlu-C18 diacid])QILLKQERQK[Aib]QRQQAEKNKQILAQV-NH2
modifications: N-terminus assumed
SMILES: CC[C@H](C)[C@H](N)C(=O)N[C@H](C(=O)N[C@@H](CC(C)C)C(=O)N[C@@H](CO)C(=O)N[C@@H](CC(C)C)C(=O)N[C@@H](CC(=O)O)C(=O)N[C@H](C(=O)N1CCC[C@H]1C(=O)N[C@H](C(=O)N[C@@H](CCCCN)C(=O)N[C@@H](CC(C)C)C(=O)N[C@@H](CCCCNC(=O)COCCOCCNC(=O)COCCOCCNC(=O)CC[C@H](NC(=O)CCCCCCCCCCCCCCCCC(=O)O)C(=O)O)C(=O)N[C@@H](CCC(N)=O)C(=O)N[C@H](C(=O)N[C@@H](CC(C)C)C(=O)N[C@@H](CC(C)C)C(=O)N[C@@H](CCCCN)C(=O)N[C@@H](CCC(N)=O)C(=O)N[C@@H](CCC(=O)O)C(=O)N[C@@H](CCCNC(=N)N)C(=O)N[C@@H](CCC(N)=O)C(=O)N[C@@H](CCCCN)C(=O)NC(C)(C)C(=O)N[C@@H](CCC(N)=O)C(=O)N[C@@H](CCCNC(=N)N)C(=O)N[C@@H](CCC(N)=O)C(=O)N[C@@H](CCC(N)=O)C(=O)N[C@@H](C)C(=O)N[C@@H](CCC(=O)O)C(=O)N[C@@H](CCCCN)C(=O)N[C@@H](CC(N)=O)C(=O)N[C@@H](CCCCN)C(=O)N[C@@H](CCC(N)=O)C(=O)N[C@H](C(=O)N[C@@H](CC(C)C)C(=O)N[C@@H](C)C(=O)N[C@@H](CCC(N)=O)C(=O)N[C@H](C(N)=O)C(C)C)[C@@H](C)CC)[C@@H](C)CC)[C@@H](C)CC)C(C)C)C(C)C
Regarding B4, the EC50 [nM], 0% HSA was determined as 0.11 nM.

B5: SEQ ID NO: 110 (peptide)
peptide: IVLSLDVPIKLK([AEEA-AEEA-γGlu-C18 diacid])QILLKQERQK[Aib]QRQQAETNKQILAQV-NH2
modifications: N-terminus assumed
SMILES: CC[C@H](C)[C@H](N)C(=O)N[C@H](C(=O)N[C@@H](CC(C)C)C(=O)N[C@@H](CO)C(=O)N[C@@H](CC(C)C)C(=O)N[C@@H](CC(=O)O)C(=O)N[C@H](C(=O)N1CCC[C@H]1C(=O)N[C@H](C(=O)N[C@@H](CCCCN)C(=O)N[C@@H](CC(C)C)C(=O)N[C@@H](CCCCNC(=O)COCCOCCNC(=O)COCCOCCNC(=O)CC[C@H](NC(=O)CCCCCCCCCCCCCCCCC(=O)O)C(=O)O)C(=O)N[C@@H](CCC(N)=O)C(=O)N[C@H](C(=O)N[C@@H](CC(C)C)C(=O)N[C@@H](CC(C)C)C(=O)N[C@@H](CCCCN)C(=O)N[C@@H](CCC(N)=O)C(=O)N[C@@H](CCC(=O)O)C(=O)N[C@@H](CCCNC(=N)N)C(=O)N[C@@H](CCC(N)=O)C(=O)N[C@@H](CCCCN)C(=O)NC(C)(C)C(=O)N[C@@H](CCC(N)=O)C(=O)N[C@@H](CCCNC(=N)N)C(=O)N[C@@H](CCC(N)=O)C(=O)N[C@@H](CCC(N)=O)C(=O)N[C@@H](C)C(=O)N[C@@H](CCC(=O)O)C(=O)N[C@H](C(=O)N[C@@H](CC(N)=O)C(=O)N[C@@H](CCCCN)C(=O)N[C@@H](CCC(N)=O)C(=O)N[C@H](C(=O)N[C@@H](CC(C)C)C(=O)N[C@@H](C)C(=O)N[C@@H](CCC(N)=O)C(=O)N[C@H](C(N)=O)C(C)C)[C@@H](C)CC)[C@@H](C)O)[C@@H](C)CC)[C@@H](C)CC)C(C)C)C(C)C
The molecule B5 came in with an EC50 [nM], 0% HSA of 0.18 nM.

B6: SEQ ID NO: 115 (peptide)
peptide: IVLSLDVPIKLK([AEEA-AEEA-γGlu-C18 diacid])QILLKQERQK[Aib]QREQAEKNKQILERV-NH2
modifications: N-terminus assumed
SMILES: CC[C@H](C)[C@H](N)C(=O)N[C@H](C(=O)N[C@@H](CC(C)C)C(=O)N[C@@H](CO)C(=O)N[C@@H](CC(C)C)C(=O)N[C@@H](CC(=O)O)C(=O)N[C@H](C(=O)N1CCC[C@H]1C(=O)N[C@H](C(=O)N[C@@H](CCCCN)C(=O)N[C@@H](CC(C)C)C(=O)N[C@@H](CCCCNC(=O)COCCOCCNC(=O)COCCOCCNC(=O)CC[C@H](NC(=O)CCCCCCCCCCCCCCCCC(=O)O)C(=O)O)C(=O)N[C@@H](CCC(N)=O)C(=O)N[C@H](C(=O)N[C@@H](CC(C)C)C(=O)N[C@@H](CC(C)C)C(=O)N[C@@H](CCCCN)C(=O)N[C@@H](CCC(N)=O)C(=O)N[C@@H](CCC(=O)O)C(=O)N[C@@H](CCCNC(=N)N)C(=O)N[C@@H](CCC(N)=O)C(=O)N[C@@H](CCCCN)C(=O)NC(C)(C)C(=O)N[C@@H](CCC(N)=O)C(=O)N[C@@H](CCCNC(=N)N)C(=O)N[C@@H](CCC(=O)O)C(=O)N[C@@H](CCC(N)=O)C(=O)N[C@@H](C)C(=O)N[C@@H](CCC(=O)O)C(=O)N[C@@H](CCCCN)C(=O)N[C@@H](CC(N)=O)C(=O)N[C@@H](CCCCN)C(=O)N[C@@H](CCC(N)=O)C(=O)N[C@H](C(=O)N[C@@H](CC(C)C)C(=O)N[C@@H](CCC(=O)O)C(=O)N[C@@H](CCCNC(=N)N)C(=O)N[C@H](C(N)=O)C(C)C)[C@@H](C)CC)[C@@H](C)CC)[C@@H](C)CC)C(C)C)C(C)C
B6: the EC50 [nM], 0% HSA was determined as 2.77 nM.
In the case of IVLSLDVPIKLK([AEEA-AEEA-γGlu-C18 diacid])QILLEQARQK[Aib]QRAQAETNKRILERV-NH2 [SEQ ID NO: 114], the EC50 [nM], 0% HSA worked out at 0.16 nM and the EC50 [nM], 0.1% HSA came out at 12.4 nM.
